In patent publication US20220073608A1 (JIANGSU HUAIYU PHARMACEUTICAL, published 2022):
Changes are numbered by the printed parent chain.

T1: hSEMA4D ECD-His (His-tagged human SEMA4D protein extracellular domain, Met22-Arg734) (human, UniProt Q92854 22-734)
T1 construct: Expressed in CHO-S cells, purified on Ni column; also called protein immunogen; immunogen A; not shown: His tag of the pCP vector
T1 sequence: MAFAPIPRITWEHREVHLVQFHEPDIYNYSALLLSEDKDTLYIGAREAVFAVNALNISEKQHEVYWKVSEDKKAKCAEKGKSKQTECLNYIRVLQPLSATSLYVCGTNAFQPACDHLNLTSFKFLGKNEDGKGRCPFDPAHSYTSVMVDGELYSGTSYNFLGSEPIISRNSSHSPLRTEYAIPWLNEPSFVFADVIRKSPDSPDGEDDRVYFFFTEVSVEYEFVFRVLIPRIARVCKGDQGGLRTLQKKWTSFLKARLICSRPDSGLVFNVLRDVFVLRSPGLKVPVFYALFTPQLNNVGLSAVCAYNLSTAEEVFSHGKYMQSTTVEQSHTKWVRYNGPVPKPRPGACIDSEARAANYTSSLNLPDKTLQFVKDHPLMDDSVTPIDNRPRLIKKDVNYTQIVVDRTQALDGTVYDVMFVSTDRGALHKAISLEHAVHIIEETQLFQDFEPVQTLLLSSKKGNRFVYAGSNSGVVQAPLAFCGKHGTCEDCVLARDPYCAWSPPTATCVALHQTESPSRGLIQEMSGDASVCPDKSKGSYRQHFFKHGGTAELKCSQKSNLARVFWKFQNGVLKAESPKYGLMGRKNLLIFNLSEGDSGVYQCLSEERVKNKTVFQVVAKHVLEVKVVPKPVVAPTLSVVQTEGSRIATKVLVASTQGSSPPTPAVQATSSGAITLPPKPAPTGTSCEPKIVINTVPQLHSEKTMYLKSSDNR

B1: 32C8F10 (antibody, V domains shown)
VH: EVQLQQSGAELVRPGASVKLSCTASGFNIKDEYIHWVKQRPEQGLEWIGWIDPANGHTEYASRFQAKATITADTSSNTAYLQLSSLTSEDTAVYYCTTGDYDGFAYWGQGTLVTVST
VL: QIVLTQSPAIMSASPGEKVTISCSARSSVSYMYWYQQKPGSSPKPWIYRTSNLASGVPARFSGSGSGTSYSLTISSMEAEDAATYYCQHYHTYPYTFGGGTKLEIK
notes: Mouse monoclonal antibody purified from hybridoma supernatant on protein A
B2: 31G10C5 (antibody, V domains shown)
VH: B1 VH with E32D, T58I, R63N, A105T
VL: B1 VL
notes: as for B1
B3: 31C11G2 (antibody, V domains shown)
VH: B1 VH with A105V
VL: B1 VL with S22F
notes: as for B1
B4: 37F11F9 (antibody, V domains shown)
VH: EVQLQQSGPVLVKPGASVKMSCKASGYTFTDYYMNWVKQSHGKSLEWIGLINPYSGGSTFNQKFKAKATLTVDKSSSSAYMDLNSLTSEDSAVYYCARVGDGYYGVTHGMDYWGQGTSVTVSS
VL: DIVMTPSQKFMSTTVGDRVSITCKASQNVGTAVAWYQQKPGQSPTILIYSASNRYTGVPDRFTGSGSGTDFTLTISNMKSEDLADYFCQQYYIYPFTFAAGTKLELK
notes: as for B1
B5: 37C4F7 (antibody, V domains shown)
VH: EFQLQQSGPEVVKPGASVKISCKASGYSFTDYNMNWMKQSKGKSLEWIGVINPNYGTTTYNQNFKGKATLTVDQSSSTAYMQLNSLTSEDSAVYYCARDMYYVYAYYTMDYWGQGTSVTVSS
VL: DVVMTQTPLSLPVSLGDQASISCRSSQSLVHSNGHTYLHWYLQRPGQSPTLLIYKVSNRFSGVPDRFSGSGSGTDFTLKISRVEAEDLGVYFCSQGTHVPWTFGGGTKLEIK
notes: as for B1
B6: 38H2E3 (antibody, V domains shown)
VH: B5 VH with N52S, N54D, G66D, R98K, Q114H
VL: B5 VL with F67V, W101R
notes: as for B1
B7: 42B7G2 (antibody, V domains shown)
VH: QVQLQQSGAELARPGASVKLSCKASGYTFTDYGISWVKQRTGQGLEWIGEIYLRNDNSYYNEKFKGKATLTADKSSNTAYMELRSLTSEDSAVYFCARWGDHGNNYEDAMDYWGQGTSVTVSS
VL: DIVLTQSPASLAMSLGKRATISCRASESVSIIGSNLIHWYQQKPGQPPKLLIYHASNLETGVPARFSGSGSRTDFTLTIDPVEEDDVAIYYCLQSRKVPYTFGGGTKLEIK
notes: as for B1

Tests used:
[1] = biological target: T2, monkey SEMA4D, full length, on CHO-K1 cells (CHO-K1 cSEMA4D) (monkey); assay: FACS, CHO-K1 cSEMA4D cells; Ab 66.7 nM
T2 construct: whole, on cells; also called monkey SEMA4D recombinant cells
Procedure: (§1) After the cells were counted, they were diluted with PBS to 2×10⁶ cells per milliliter. After washing, 100 μL of diluted and purified leading antibodies was added to each well and the plate was incubated for 1 hour on ice. […] Cells were washed 2 times by centrifugation with FACS buffer. The cells were suspended with 200 μL of FACS buffer, FACS (FACS Verse, purchased from BD) was used to detect and analyze the results.

[2] = biological target: T1, hSEMA4D ECD-His (His-tagged human …); assay: ELISA, coated hSEMA4D ECD-His; Ab 6.67 nM
Procedure: (§2) First, hSEMA4D ECD-His was diluted with PBS to a final concentration of 1.0 μg/mL, and then was added to a 96-well ELISA plate, 100 μL per well, sealed with plastic film and incubated overnight at 4° C. On the next day, the plate was washed with a plate washing solution, that is, PBS buffer containing 0.05% (v/v) Tween20, for 4 times, and added with blocking solution, that is, PBS buffer containing 0.05% (v/v) Tween20 and 2% (w/w) BSA, blocked at 37° C. for 1 hour. The blocking solution was poured out and the plate was washed 4 times with the plate washing solution. 100 μL of the purified leading antibodies obtained in Examples 1 and 2 was added to each well. After incubation at 37° C. for 1 hour, the plate was washed 4 times with a plate washing solution. 100 μL of horseradish peroxidase (HRP) labeled secondary antibody (purchased from Sigma) was added at a dilution of 1:10000 to each well, and the plate was incubated at 37° C. for 1 hour, and washed 4 times with a plate washing solution. 100 μL TMB substrate was added to each well, and the plate was incubated at room temperature for 5 minutes, and added with 100 μL stop solution (1.0N HCl) to each well. A microplate reader (SpectraMax M5e, purchased from Molecular Device) was used to read the A450 nm value. […] Wherein, the data in the table was the OD450 nm value.

[3] = biological target: T2, monkey SEMA4D, full length, on CHO-K1 …; assay: FACS, CHO-K1 cSEMA4D cells; Ab 0.00427 nM
Procedure: as §1

[4] = biological target: T1, hSEMA4D ECD-His (His-tagged human …); assay: ELISA, coated hSEMA4D ECD-His; Ab 0.00427 nM
Procedure: as §2

Row | MFI [1] | OD450 nm [2] | MFI [3] | OD450 nm [4] | Binder
1 | 5780 | 2.32 | 97.6 | 0.0685 | B1
2 | 4600 | 1.59 | 152 | 0.0915 | B2
3 | 4370 | 1.74 | 139 | 0.0939 | B3
4 | 2520 | 1.54 | 45.4 | 0.0638 | B4
5 | 2900 | 1.19 | 38.2 | 0.0623 | B5
6 | 2890 | 1.46 | 35 | 0.0744 | B6
7 | 2670 | 2.07 | 92.7 | 0.0851 | B7
